# Experimental data as given in ChEMBL document CHEMBL2074219, “Cellular uptake mechanism of amino acid ester prodrugs in Caco-2/hPEPT1 cells overexpressing a human peptide transporter” (Pharm Res, 1998).
# B1: Solute carrier family 15 member 1 (Homo sapiens), P46059 (protein)
# chain: MGMSKSHSFFGYPLSIFFIVVNEFCERFSYYGMRAILILYFTNFISWDDNLSTAIYHTFVALCYLTPILGALIADSWLGKFKTIVSLSIVYTIGQAVTSVSSINDLTDHNHDGTPDSLPVHVVLSLIGLALIALGTGGIKPCVSAFGGDQFEEGQEKQRNRFFSIFYLAINAGSLLSTIITPMLRVQQCGIHSKQACYPLAFGVPAALMAVALIVFVLGSGMYKKFKPQGNIMGKVAKCIGFAIKNRFRHRSKAFPKREHWLDWAKEKYDERLISQIKMVTRVMFLYIPLPMFWALFDQQGSRWTLQATTMSGKIGALEIQPDQMQTVNAILIVIMVPIFDAVLYPLIAKCGFNFTSLKKMAVGMVLASMAFVVAAIVQVEIDKTLPVFPKGNEVQIKVLNIGNNTMNISLPGEMVTLGPMSQTNAFMTFDVNKLTRINISSPGSPVTAVTDDFKQGQRHTLLVWAPNHYQVVKDGLNQKPEKGENGIRFVNTFNELITITMSGKVYANISSYNASTYQFFPSGIKGFTISSTEIPPQCQPNFNTFYLEFGSAYTYIVQRKNDSCPEVKVFEDISANTVNMALQIPQYFLLTCGEVVFSVTGLEFSYSQAPSNMKSVLQAGWLLTVAVGNIIVLIVAGAGQFSKQWAEYILFAALLLVVCVIFAIMARFYTYINPAEIEAQFDEDEKKNRLEKSNPYFMSGANSQKQM
# Columns and labels:
# [1] = substrate: CN(CC(=O)O)C(=O)CN; experiment: TP_TRANSPORTER: uptake in PEPT1-overexpressing Caco-2 cells; format: functional, cell-based
# [2] = substrate: CN(CC(=O)O)C(=O)CN; experiment: TP_TRANSPORTER: uptake in Caco-2 cells; format: functional, cell-based
protein,measurement,setting,value
B1,Km,[1],2100 µM
same,Km,[2],700 µM
